Where a chain is given by its changes, count along the chain named. Names and notes keep the numbering of the source. Like-named read-outs stand apart in the source and are kept apart here. Blank lines part the entries; values can stand above or below the binder they belong to.
What was measured:
[1] = biological target: T1, mouse FcγRII (mouse, UniProt P08101 30-210); experiment: SPR Biacore T200, KD ratio
T1 construct: also called mFcγRII; mFcgRII
T1 sequence: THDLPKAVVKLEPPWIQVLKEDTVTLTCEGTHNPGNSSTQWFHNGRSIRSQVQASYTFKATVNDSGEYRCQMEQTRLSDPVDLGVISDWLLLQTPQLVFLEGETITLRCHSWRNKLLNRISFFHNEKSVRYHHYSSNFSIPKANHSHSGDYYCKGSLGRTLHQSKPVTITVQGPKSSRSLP
Method: (§1) The antibody L chain commonly used was the L chain MRAL-k0 (SEQ ID NO: 2) of the anti-IL-6 receptor antibody tocilizumab. The antibody H chain constant region used was each of the aforementioned 8 Fc variants prepared by altering human IgG1 hIgG1 (SEQ ID NO: 3) as a template.
(§2) Each altered antibody was analyzed for its interaction with each Fcγ receptor prepared above using Biacore T100 (GE Healthcare Japan Corp.), Biacore T200 (GE Healthcare Japan Corp.), Biacore A100, or Biacore 4000. The running buffer used was HBS-EP+ (GE Healthcare Japan Corp.). The assay temperature was set to 25° C. The sensor chips used were chips prepared by immobilizing Protein L (ACTIGEN or BioVision) onto Series S Sensor Chip CM5 (GE Healthcare Japan Corp.) or Series S Sensor Chip CM4 (GE Healthcare Japan Corp.) by the amine coupling method.
(§3) In order to calculate the KD value of each altered antibody for FcγR, kinetic analysis was conducted according to the following method: first, the antibody of interest was captured onto any of these chips and allowed to interact with mFcγR diluted with a running buffer. For the obtained sensorgram, the assay results were globally fit into the 1:1 Langmuir binding model using Biacore Evaluation Software to calculate an association rate constant ka (L/mol/s) and a dissociation rate constant kd (1/s). From these values, the dissociation constant KD (mol/L) was calculated.

[2] = biological target: T2, mouse FcγRIII (mouse, UniProt P08508 31-215); experiment: SPR Biacore T200, KD ratio
T2 construct: also called mFcγRIII; mFcgRIII
T2 chain: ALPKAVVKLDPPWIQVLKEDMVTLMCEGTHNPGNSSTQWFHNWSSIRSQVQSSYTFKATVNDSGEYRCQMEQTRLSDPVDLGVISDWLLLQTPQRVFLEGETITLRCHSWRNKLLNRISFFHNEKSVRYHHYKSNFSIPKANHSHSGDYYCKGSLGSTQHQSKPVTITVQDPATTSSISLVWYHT
Method: as §1, §2, §3

[3] = biological target: T1, mouse FcγRII; experiment: SPR Biacore T200, KD ratio; remark: listed apart in the source
[4] = biological target: T2, mouse FcγRIII; experiment: SPR Biacore T200, KD ratio
[5] = biological target: T1, mouse FcγRII; experiment: SPR Biacore T200, KD ratio; remark: listed apart in the source
Excerpt: (§4) The antibody H chain variable region used was the variable region H237 (SEQ ID NO: 1) of the H chain VH3-IgG1 of the anti-IL-6 receptor antibody Fv4-IgG1 described in WO2009/125825. The antibody L chain commonly used was the L chain MRAL-k0 (SEQ ID NO: 2) of the anti-IL-6 receptor antibody tocilizumab. H237-MB476/MRAL-k0 and H237-MB515/MRAL-k0 were used as templates to introduce new alterations. These variants were expressed and purified by the method of Reference Example 1 and evaluated for their binding to mFcγRII and mFcγRIII by the method of Reference Example 2 using Biacore T200.
as §2, §3

[6] = biological target: T3, mouse FcγRIII extracellular domain, C-terminally His-tagged (mouse, UniProt P08508 31-215); experiment: SPR Biacore T200, antibody captured on Protein L
T3 construct: the whole entry is named; also called mFcγRIII; mFcgRIII
T3 chain: T2 chain
Method: As for alterations, “X000Z” represents the substitution of amino acid X at EU numbering position 000 by amino acid Z. In this context, X and Z represent the one-letter codes of the amino acid residues.
as §2, §3

[7] = biological target: T4, mouse FcγRII extracellular domain, C-terminal His tag (mouse, UniProt P08101 30-210); experiment: SPR (Biacore T200)
T4 construct: Whole entry named; also called mFcγRII; mFcgRII
T4 sequence: T1 sequence
Excerpt: as §4, with “H237-MB476/MRAL-k0 and H237-MB515/MRAL-k0 were used as templates to introduce new alterations.” left out
as §2

[8] = biological target: T5, mouse FcγRIII extracellular domain, C-terminal His tag (mouse, UniProt P08508 31-215); experiment: SPR (Biacore T200)
T5 construct: Whole entry named; also called mFcγRIII; mFcgRIII
T5 chain: T2 chain
Excerpt: as §4, with “H237-MB476/MRAL-k0 and H237-MB515/MRAL-k0 were used as templates to introduce new alterations.” left out
as §2

[9] = biological target: T4, mouse FcγRII extracellular domain, …; experiment: SPR (Biacore T200); KD of H237-mIgG1/MRAL-k0 / KD of variant
[10] = biological target: T5, mouse FcγRIII extracellular domain, …; experiment: as above
[11] = biological target: T4, mouse FcγRII extracellular domain, …; experiment: as above; remark: listed apart in the source
[12] = biological target: T5, mouse FcγRIII extracellular domain, …; experiment: SPR (Biacore T200)
[13] = biological target: T6, mouse FcγRIII (mouse, UniProt P08508 31-215); experiment: SPR (Biacore), antibody captured on Protein L, mFcγR as analyte
T6 construct: also called mFcγRIII; mFcgRIII
T6 chain: T2 chain
Method: (§5) The antibody of interest was captured onto any of these sensor chips and allowed to interact with mFcγR diluted with a running buffer. The amount bound to the antibody was measured and compared among antibodies. Since the amount of mFcγR bound depends on the amount of the captured antibody, a correction value determined by dividing the amount of mFcγR bound by the amount of each captured antibody was used in the comparison. The antibody captured on the sensor chip was washed off through the reaction of 10 mM glycine-HCl (pH 1.5) to regenerate the sensor chip, which was repetitively used.
as §3

[14] = biological target: T7, mouse FcγRII (mouse, UniProt P08101 30-210); experiment: as above
T7 construct: also called mFcγRII; mFcgRII
T7 sequence: T1 sequence
Method: as §5, §3

B1: FS134 (antibody, human IgG1, kappa)
heavy: QVQLQESGPGLVKPSETLSLTCAVSGHSISHDHAWSWVRQPPGEGLEWIGFISYSGITNYNPSLQGRVTISRDNSKNTLYLQMNSLRAEDTAVYYCARSLARTTAMDYWGEGTLVTVSSASTKGPSVFPLAPSSKSTSGGTAALGCLVKDYFPEPVTVSWNSGALTSGVHTFPAVLQSSGLYSLSSVVTVPSSSLGTQTYICNVNHKPSNTKVDKKVEPKSCDKTHTCPPCPAPELLGGPDVFLFPPKPKDTLMISRTPEVTCVVVDVSDEDPEVKFNWYVDGVEVHNAKTKPREEQYNSTYRVVSVLTVLHQDWLNGKEYKCKVSNKAYPAPIEKTISKAKGQPREPQVYTLPPSRDELTKNQVSLTCLVKGFYPSDIAVEWESNGQPENNYKTTPPVLDSDGSFFLYSKLTVDKSRWQQGNVFSCSVMHEALHNHYTQKSLSLSPGK
light: not shown
notes: human IgG1 constant region variant; copies: 2 + 2
relative mFcγRII-binding activity (mIgG1 = 1) [1]: 58.2 fold | relative mFcγRIII-binding activity (mIgG1 = 1) [2]: 20.8 fold

B2: F616 (antibody, human IgG1, kappa)
heavy: B1 heavy with D270H, K328D
light: not shown
notes: as for B1
relative mFcγRII-binding activity (mIgG1 = 1) [1]: 186 fold | relative mFcγRIII-binding activity (mIgG1 = 1) [2]: 50.1 fold

B3: FS131 (antibody, human IgG1, kappa)
heavy: B1 heavy with L236W, D270H
light: not shown
notes: as for B1
relative mFcγRII-binding activity (mIgG1 = 1) [1]: 144 fold | relative mFcγRIII-binding activity (mIgG1 = 1) [2]: 33.2 fold

B4: FS132 (antibody, human IgG1, kappa)
heavy: B1 heavy with D270H, A329D
light: not shown
notes: as for B1
relative mFcγRII-binding activity (mIgG1 = 1) [1]: 96.7 fold | relative mFcγRIII-binding activity (mIgG1 = 1) [2]: 41.8 fold

B5: FS133 (antibody, human IgG1, kappa)
heavy: B1 heavy with Y330W
light: not shown
notes: as for B1
relative mFcγRII-binding activity (mIgG1 = 1) [1]: 162 fold | relative mFcγRIII-binding activity (mIgG1 = 1) [2]: 86.5 fold

B6: FS135 (antibody, human IgG1, kappa)
heavy: B1 heavy with S269A, D270H
light: not shown
notes: as for B1
relative mFcγRII-binding activity (mIgG1 = 1) [1]: 138 fold | relative mFcγRIII-binding activity (mIgG1 = 1) [2]: 34.4 fold

B8: H237-MB390/MRAL-k0 (antibody, mouse IgG1, kappa)
heavy: QVQLQESGPGLVKPSETLSLTCAVSGHSISHDHAWSWVRQPPGEGLEWIGFISYSGITNYNPSLQGRVTISRDNSKNTLYLQMNSLRAEDTAVYYCARSLARTTAMDYWGEGTLVTVSSAKTTPPSVYPLAPGSAAQTNSMVTLGCLVKGYFPEPVTVTWNSGSLSSGVHTFPAVLQSDLYTLSSSVTVPSSTWPSETVTCNVAHPASSTKVDKKIVPRDCGCKPCICEPNEVEDVFIFPPKPKDVLTITLTPKVTCVVVDISKDDPEVQFSWFVDDVEVHTAQTQPREEQFNSTFRSVSELPIMHQDWLNGKEFKCRVNSAAFPAPIEKTISKTKGRPKAPQVYTIPPPKEQMAKDKVSLTCMITDFFPEDITVEWQWNGQPAENYKNTQPIMDTDGSYFVYSKLNVQKSNWEAGNTFTCSVLHEGLHNHHTEKSLSHSPGK
light: not shown
notes: mIgG1 with T230E/V231P/P232N/S238E/S239D; also called template T8; copies: 2 + 2
relative mFcγRII-binding activity (H237-mIgG1/MRAL-k0 = 1) [5]: > 500 fold

B10: H237-MB590/MRAL-k0 (antibody, mouse IgG1, kappa)
heavy: B8 heavy with E229T, P230V, N231P, E234D, D235S, S263M
light: not shown
notes: copies: 2 + 2
binding result [7]: no binding | binding result [8]: no binding

B11: H237-MB606/MRAL-k0 (antibody, mouse IgG1, kappa)
heavy: B8 heavy with P230V, N231P, E234D, D235S, S263M
light: not shown
notes: copies: 2 + 2
relative mFcγRII-binding activity (mIgG1 = 1) [9]: 0.05 fold | binding result [8]: no binding

B12: H237-MB610/MRAL-k0 (antibody, mouse IgG1, kappa)
heavy: B8 heavy with E229T, P230V, N231P, V233E, E234S, D235E, F237D
light: not shown
notes: copies: 2 + 2
relative mFcγRII-binding activity (mIgG1 = 1) [9]: 0.23 fold | binding result [8]: no binding

B15: H237-MB879/MRAL-k0 (antibody, mouse IgG1, kappa)
heavy: B8 heavy with E229T, V233E, D235L
light: not shown
notes: copies: 2 + 2
relative mFcγRII-binding activity (mIgG1 = 1) [11]: 0.3 fold | binding result [12]: no binding

B17: H237-mIgG1/MRAL-k0 (antibody)
heavy: B8 heavy with E229T, P230V, N231P, E234S, D235S
light: not shown
notes: Anti-IL-6 receptor antibody with unaltered mouse IgG1 H chain constant region; copies: 2 + 2
Kd [13]: 282 nM

More lines, now with the values ahead:

Relative mFcγRII-binding activity (MB110 = 1) [3]: 3.44 fold | relative mFcγRII-binding activity (mIgG1 = 1) [3]: 42.2 fold | Relative mFcγRIII-binding activity (MB110 = 1) [4]: 0.64 fold | relative mFcγRIII-binding activity (mIgG1 = 1) [4]: 2.6 fold | mFcγRII-binding activity relative to H237-MB302/MRAL-k0 (before the introduction of V231D) [5]: ~0.8 fold
B7: H237-MB338/MRAL-k0 (antibody, mouse IgG1, kappa)
heavy: B8 heavy with P230D, N231P
light: not shown
notes: copies: 2 + 2

Kd [6]: 282 nM
B9: H237-mIgG1/MRAL-k0 (antibody)
heavy: B8 heavy with E229T, P230V, N231P, E234S, D235S
light: not shown
notes: Anti-IL-6 receptor antibody with the unaltered mouse IgG1 H chain constant region; copies: 2 + 2

relative mFcγRIII-binding activity (mIgG1 = 1) [10]: 0.01 fold | binding result [7]: no binding
B13: H237-MB675/MRAL-k0 (antibody)
heavy: B8 heavy with E229I, N231A, D235K
light: not shown
notes: copies: 2 + 2

relative mFcγRIII-binding activity (mIgG1 = 1) [10]: 0.03 fold | binding result [7]: no binding
B14: H237-MB677/MRAL-k0 (antibody)
heavy: B8 heavy with E229Q, D235K
light: not shown
notes: copies: 2 + 2

relative mFcγRII-binding activity (mIgG1 = 1) [11]: 0.34 fold | binding result [12]: no binding
B16: H237-MB880/MRAL-k0 (antibody, mouse IgG1, kappa)
heavy: B8 heavy with P230V, N231A, V233E, D235L
light: not shown
notes: copies: 2 + 2

Kd [13]: 94 nM | relative mFcγRIII-binding activity (mIgG1 = 1) [13]: 3 fold | Kd [14]: 1.07 nM | relative mFcγRII-binding activity (mIgG1 = 1) [14]: 196 fold
B18: H237-MB477/MRAL-k0 (antibody, mouse IgG1, kappa)
heavy: B8 heavy with S263A
light: not shown
notes: mouse IgG1 CH variant; copies: 2 + 2

Kd [13]: 25.8 nM | relative mFcγRIII-binding activity (mIgG1 = 1) [13]: 10.9 fold | Kd [14]: 0.338 nM | relative mFcγRII-binding activity (mIgG1 = 1) [14]: 622 fold
B19: H237-MB492/MRAL-k0 (antibody, mouse IgG1, kappa)
heavy: B8 heavy with N320D
light: not shown
notes: as for B18

— patent publication US20150203577A1 (Chugai, published 2015)
